Measurements: US20240150445A1
Positions count from the first letter of the chain named.

B1: DH270.IA4 (antibody, V domains shown)
VH: QVQLVQSGAEVKKPGASVKVSCKASGYTFTDYYIHWVRQAPGQGLEWMGWINPNTGRTNYAQKFQGRVTMTRDTSISTAYMELSRLRSDDTAVYYCARGGWIGLYYDSSGYPNFDYWGQGTLVTVSS
VL: QSALTQPASVSGSPGQSITISCTGTSYDVGSYNLVSWYQQHPGKAPKLMIYEVSKRPSGVSNRFSGSKSGNTASLTISGLQAEDEADYYCCSYAGSSTVIFGGGTKLTVL
B2: DH270.1 (antibody, V domains shown)
VH: B1 VH with V11M, T69I, R87T, R98T
VL: B1 VL with L48Y, S54N
B3: DH270.6 (antibody, V domains shown)
VH: QVQLVQSGAQMKNPGASVKVSCAPSGYTFTDFYIHWLRQAPGQGLQWMGWMNPQTGRTNTARNFQGRVIMTRDTSIGTAYMELRSLTSDDTAIYYCTTGGWISLYYDSSYYPNFDHWGQGTLLTVSS
VL: TSLLTQPASVSGSPGQSITISCTGTKYDVGSHDLVSWYQQYPGKVPKYMIYEVNKRPSGVSNRFSGSKSGNTASLTISGLRAEDEADYYCCSFGGSATVVCGGGTKVTVL
B4: DH270.2 (antibody, V domains shown)
VH: QVQLVQSGAEMKKPGASVRVSCKASGYTFTDYYIHWVRQAPGQGPEWMGWINPSTGRTNSPQKFQGRVIMTRDTSISTAYMDLNRLTSDDTAMYYCTTGGWIGLYSDTSGYPNFDYWGQGTLVTVSS
VL: B1 VL with S26N, A45V, L48Y, M49I, S54N, T98I, V99I, I100F, L110I
B5: DH270.3 (antibody, V domains shown)
VH: QVQLVQSGAEMKNPGASVKVSCAASGYTFTDFYIHWVRLAPGQGLEWMGWMNPKTGRTNNAQNFQGRVIMTRDTSIGTAYMELRRLTSDDTAVYYCVTGGWISPYYDSSYYPNFDHWGQGTLVTVSS
VL: B3 VL with T1Q, L3A, K26S, S31K, H32F, Y41H, V45A, R56W, N62H, R81Q
B6: DH270.4 (antibody, V domains shown)
VH: B5 VH with Q1E, T28G, Q43H, E46Q, N63D, M70L, V123I
VL: QSALTQPASVSGSPGQSITISCTGTSYDVAKFDLVSWFQQHPGKAPKYMIYEVNKWPSGVSHRFSGSKSGNTASLTISGLQAEDEADYYCCSFGGSATVVCGGGTKVTVL
B7: DH270.5 (antibody, V domains shown)
VH: B5 VH with M11V, A24P, M48L, N60Q, A61G, R85S, G100A, P104D
VL: LPVLTQPASVSGSPGQSITISCTGTIYDVGKFDLVSWYQHHPGKAPKYLIYEVKKWPSGVSHRFSGSKSGNTASLTISGLQVEDEADYYCCSFGGSAAVVCGGGTKVTVL

biological target: Man9-V3 glycopeptide; assay: biolayer interferometry, biotinylated peptide on streptavidin sensors

| Binder | Kd |
| --- | --- |
| B1 | > 10000 nM |
| B2 | 331 nM |
| B3 | 188 nM |

biological target: Man9-V3 glycopeptide; assay: biolayer interferometry, biotinylated Man9-V3 on streptavidin sensors, antibody in solution, global fit to the bivalent avidity model

| Binder | koff | kon |
| --- | --- | --- |
| B2 | 0.00051 s⁻¹ | 1540 M⁻¹ s⁻¹ |
| B4 | 0.0081 s⁻¹ | 1710 M⁻¹ s⁻¹ |
| B5 | 0.000778 s⁻¹ | 4000 M⁻¹ s⁻¹ |
| B6 | 0.00052 s⁻¹ | 1500 M⁻¹ s⁻¹ |
| B7 | 0.00091 s⁻¹ | 3300 M⁻¹ s⁻¹ |
| B3 | 0.00037 s⁻¹ | 1970 M⁻¹ s⁻¹ |

biological target: Man9-V3 glycopeptide; assay: biolayer interferometry, biotinylated Man9-V3 on streptavidin sensors, antibody in solution; inset curves (100, 50, 25 µg/mL) after subtraction of the palivizumab signal

| Binder | Kd |
| --- | --- |
| B1 | > 10000 nM |
